Measurements published in patent publication US20080281082 (published 2008).
Positions count from the first letter of the chain named.

Target: Aβ (beta amyloid peptide) (human)
Test: SPR

B1: humanized 3D6v2 (antibody, V domains shown)
VH: EVQLLESGGGLVQPGGSLRLSCAASGFTFSNYGMSWVRQAPGKGLEWVASIRSGGGRTYYSDNVKGRFTISRDNSKNTLYLQMNSLRAEDTAVYYCVRYDHYSGSSDYWGQGTLVTVSS
VL: DVVMTQSPLSLPVTPGEPASISCKSSQSLLDSDGKTYLNWLLQKPGQSPQRLIYLVSKLDSGVPDRFSGSGSGTDFTLKISRVEAEDVGVYYCWQGTHFPRTFGQGTKVEIK
Binder B1 has a Kd of 2.24 nM.

B2: humanized 3D6v1 (antibody, V domains shown)
VH: B1 VH with S75A, T78S, V93L
VL: B1 VL with D1Y
In the case of B2, the Kd is reported as 2.06 nM.
